Assay results: US12295987B2, “Method of using a GIP/GLP1 co-agonist for diabetes” (Eli Lilly and Company, priority 2018, dated 2025)

Biological target: T1, human gastric inhibitory peptide receptor (hGIPR) (Homo sapiens, UniProt P48546)
T1 construct: expressed in transfected cells; host or cells: HEK293
T1 sequence (P48546 22-466): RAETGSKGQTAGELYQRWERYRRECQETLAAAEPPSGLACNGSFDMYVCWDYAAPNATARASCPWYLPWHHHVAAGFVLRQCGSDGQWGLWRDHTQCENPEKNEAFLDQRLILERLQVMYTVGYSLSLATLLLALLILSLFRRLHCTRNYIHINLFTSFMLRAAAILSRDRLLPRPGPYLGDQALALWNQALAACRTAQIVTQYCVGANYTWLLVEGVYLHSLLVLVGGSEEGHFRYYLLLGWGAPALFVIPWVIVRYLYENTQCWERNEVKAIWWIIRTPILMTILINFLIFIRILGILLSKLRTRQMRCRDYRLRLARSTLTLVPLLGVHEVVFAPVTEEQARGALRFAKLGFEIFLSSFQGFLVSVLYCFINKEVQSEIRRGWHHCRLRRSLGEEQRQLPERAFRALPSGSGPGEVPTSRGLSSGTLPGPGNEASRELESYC
Experiment: cAMP pharmacological functional assay in presence of 0.1% casein, hGIPR
Format: cell-based
Conditions: ratio of hGIPR to hGLP1R cAMP EC50 ratios
Experimental: Each receptor over-expressing cell line (20 μl) is treated with the test peptide in DMEM (Gibco Cat #31053) supplemented with 0.1% Casein (Sigma Cat #C4765), 250 μM IBMX, 1× GlutaMAX™ (Gibco Cat #35050), and 20 mM HEPES (HyClone Cat #SH30237.01) in a 20 μl assay volume. […] EC50 is the concentration of compound causing half-maximal simulation in a dose response curve. A relative EC50 value is derived by non-linear regression analysis using the percent maximal response vs. the concentration of peptide added, fitted to a four-parameter logistic equation.
Intracellular cAMP levels are determined by extrapolation using a standard curve. Dose response curves of compounds are plotted as the percentage of stimulation normalized to minimum (buffer only) and maximum (maximum concentration of each control ligand) values and analyzed using a four parameter non-linear regression fit with a variable slope (Genedata Screener 13). EC50 is the concentration of compound causing half-maximal simulation in a dose response curve.
EC50 is the concentration of compound causing half-maximal simulation in a dose response curve.

Substance | [hGIPR/hGLP1R] EC50 Ratio
Y-Aib-EGT-αMeF(2F)-TSD-4Pal-SI-αMeL-LD-Orn-K((2-[2-(2-Amino-ethoxy)-ethoxy]-acetyl)2-(εK)-CO—(CH2)18—CO2H)AQ-Aib-AFI-(D-Glu)-αMeY-LIEGGPSSGAPPPS-NH2 (YXEGTXTSDXSIXLDXKAQXAFIXXLIEGGPSSGAPPPS; Aib, 4Pal, Orn, αMe residues, lipidated Lys, D-Glu, amide; (2)..(2) Xaa at position 2 is Aib; (6)..(6) Xaa at position 6 is alpha-methyl-Phe(2F); (10)..(10) Xaa at position 10 is 4Pal; (13)..(13) Xaa at position 13 is alpha-methyl-Leu; (16)..(16) Xaa at position 16 is Orn; MOD_RES (17)..(17) Lys at position 17 is chemically modified by conjugation of the epsilon-amino group of the Lys side chain with (2-[2-(2-amino-ethoxy)-ethoxy]-acetyl)2-(epsilon-Lys)-C) [Peptide 251] | 3.74
Y-Aib-EGT-αMeF(2F)-TSD-4Pal-SI-αMeL-LDEK((2-[2-(2-Amino-ethoxy)-ethoxy]-acetyl)2-(γGlu)-CO—(CH2)16—CO2H)AQ-Aib-EFI-(D-Glu)-YLIEGGPSSGAPPPS-NH2 (YXEGTXTSDXSIXLDEKAQXEFIXYLIEGGPSSGAPPPS; Aib, αMeF(2F), 4Pal, αMeL, D-Glu; lipidated K; amide; (2)..(2) Xaa at position 2 is Aib; (6)..(6) Xaa at position 6 is alpha-methyl-Phe(2F); (10)..(10) Xaa at position 10 is 4Pal; (13)..(13) Xaa at position 13 is alpha-methyl-Leu; MOD_RES (17)..(17) Lys at position 17 is chemically modified by conjugation of the epsilon-amino group of the Lys side chain with (2-[2-(2-amino-ethoxy)-ethoxy]-acetyl)2-(gamma-Glu)-CO-(CH2)16- CO2H; (20)..(20) Xaa at posit) [Peptide 204] | 6.65
Y-Aib-EGT-αMeF(2F)-TSD-4Pal-SI-αMeL-LDEK((2-[2-(2-Amino-ethoxy)-ethoxy]-acetyl)2-(γGlu)-CO—(CH2)18—CO2H)AQ-Aib-EFI-(D-Glu)-YLIEGGPSSGAPPPS-NH2 (YXEGTXTSDXSIXLDEKAQXEFIXYLIEGGPSSGAPPPS; Aib, αMeF(2F), 4Pal, αMeL, D-Glu; lipidated K; amide; (2)..(2) Xaa at position 2 is Aib; (6)..(6) Xaa at position 6 is alpha-methyl-Phe(2F); (10)..(10) Xaa at position 10 is 4Pal; (13)..(13) Xaa at position 13 is alpha-methyl-Leu; MOD_RES (17)..(17) Lys at position 17 is chemically modified by conjugation of the epsilon-amino group of the Lys side chain with (2-[2-(2-amino-ethoxy)-ethoxy]-acetyl)2-(gamma-Glu)-CO-(CH2)18- CO2H; (20)..(20) Xaa at posit) [Peptide 182] | 5.01
Y-Aib-EGT-αMeF(2F)-TSD-4Pal-SI-αMeL-LDEK((2-[2-(2-Amino-ethoxy)-ethoxy]-acetyl)2-(γGlu)-CO—(CH2)18—CO2H)AQ-Aib-EFI-Aib-YLIEGGPSSGAPPPS-NH2 (YXEGTXTSDXSIXLDEKAQXEFIXYLIEGGPSSGAPPPS; Aib, αMeF(2F), 4Pal, αMeL; lipidated K; amide; (2)..(2) Xaa at position 2 is Aib; (6)..(6) Xaa at position 6 is alpha-methyl-Phe(2F); (10)..(10) Xaa at position 10 is 4Pal; (13)..(13) Xaa at position 13 is alpha-methyl-Leu; MOD_RES (17)..(17) Lys at position 17 is chemically modified by conjugation of the epsilon-amino group of the Lys side chain with (2-[2-(2-amino-ethoxy)-ethoxy]-acetyl)2-(gamma-Glu)-CO-(CH2)18- CO2H; (20)..(20) Xaa at posit) [Peptide 189] | 3.61
Y-Aib-EGT-αMeF(2F)-TSD-4Pal-SI-αMeL-LDEK((2-[2-(2-Amino-ethoxy)-ethoxy]-acetyl)2-(εK)-CO—(CH2)18—CO2H)AQ-Aib-EFI-(D-Glu)-YLIEGGPSSGAPPPS-NH2 (YXEGTXTSDXSIXLDEKAQXEFIXYLIEGGPSSGAPPPS; Aib, αMeF(2F), 4Pal, αMeL, D-Glu; εK-lipidated K; amide; (2)..(2) Xaa at position 2 is Aib; (6)..(6) Xaa at position 6 is alpha-methyl-Phe(2F); (10)..(10) Xaa at position 10 is 4Pal; (13)..(13) Xaa at position 13 is alpha-methyl-Leu; MOD_RES (17)..(17) Lys at position 17 is chemically modified by conjugation of the epsilon-amino group of the Lys side chain with (2-[2-(2-Amino-ethoxy)-ethoxy]-acetyl)2-(epsilon-Lys)-CO-(CH2)18- CO2H; (20)..(20) Xaa at pos) [Peptide 207] | 3.87
Y-Aib-EGT-αMeF(2F)-TSD-4Pal-SI-αMeL-LDEK((2-[2-(2-Amino-ethoxy)-ethoxy]-acetyl)2-CO—(CH2)16—CO2H)AQ-Aib-EFI-(D-Glu)-YLIEGGPSSGAPPPS-NH2 (YXEGTXTSDXSIXLDEKAQXEFIXYLIEGGPSSGAPPPS; Aib, αMeF(2F), 4Pal, αMeL, D-Glu; lipidated K; amide; (2)..(2) Xaa at position 2 is Aib; (6)..(6) Xaa at position 6 is alpha-methyl-Phe(2F); (10)..(10) Xaa at position 10 is 4Pal; (13)..(13) Xaa at position 13 is alpha-methyl-Leu; MOD_RES (17)..(17) Lys at position 17 is chemically modified by conjugation of the epsilon-amino group of the Lys side chain with (2-[2-(2-amino-ethoxy)-ethoxy]-acetyl)2-CO-(CH2)16-CO2H; (20)..(20) Xaa at position 20 is Aib) [Peptide 205] | 3.91
Y-Aib-EGT-αMeF(2F)-TSD-4Pal-SI-αMeL-LDEK((2-[2-(2-Amino-ethoxy)-ethoxy]-acetyl)2CO—(CH2)18—CO2H)AQ-Aib-EFI-(D-Glu)-YLIEGGPSSGAPPPS-NH2 (YXEGTXTSDXSIXLDEKAQXEFIXYLIEGGPSSGAPPPS; Aib, αMeF(2F), 4Pal, αMeL, D-Glu; lipidated K; amide; (2)..(2) Xaa at position 2 is Aib; (6)..(6) Xaa at position 6 is alpha-methyl-Phe(2F); (10)..(10) Xaa at position 10 is 4Pal; (13)..(13) Xaa at position 13 is alpha-methyl-Leu; MOD_RES (17)..(17) Lys at position 17 is chemically modified by conjugation of the epsilon-amino group of the Lys side chain with (2-[2-(2-amino-ethoxy)-ethoxy]-acetyl)2-CO-(CH2)18-CO2H; (20)..(20) Xaa at position 20 is Aib) [Peptide 206] | 3.35
Y-Aib-EGT-αMeF(2F)-TSD-4Pal-SI-αMeL-LDKK((2-[2-(2-Amino-ethoxy)-ethoxy]-acetyl)2-(γGlu)-CO—(CH2)18—CO2H)AQ-Aib-EFI-(D-Glu)-YLIEGGPSSGAPPPS-NH2 (YXEGTXTSDXSIXLDKKAQXEFIXYLIEGGPSSGAPPPS; Aib, αMeF(2F), 4Pal, αMeL, D-Glu; lipidated K; amide; (2)..(2) Xaa at position 2 is Aib; (6)..(6) Xaa at position 6 is alpha-methyl-Phe(2F); (10)..(10) Xaa at position 10 is 4Pal; (13)..(13) Xaa at position 13 is alpha-methyl-Leu; MOD_RES (17)..(17) Lys at position 17 is chemically modified by conjugation of the epsilon-amino group of the Lys side chain with (2-[2-(2-amino-ethoxy)-ethoxy]-acetyl)2-(gamma-Glu)-CO-(CH2)18- CO2H; (20)..(20) Xaa at posit) [Peptide 203] | 7.38
